Source: patent publication US20110263830A1

Target: c-Met receptor (human) (UniProt P08581)
Assay: cell-based or functional assay

UniProt P08581, sequence (P08581 25-1390): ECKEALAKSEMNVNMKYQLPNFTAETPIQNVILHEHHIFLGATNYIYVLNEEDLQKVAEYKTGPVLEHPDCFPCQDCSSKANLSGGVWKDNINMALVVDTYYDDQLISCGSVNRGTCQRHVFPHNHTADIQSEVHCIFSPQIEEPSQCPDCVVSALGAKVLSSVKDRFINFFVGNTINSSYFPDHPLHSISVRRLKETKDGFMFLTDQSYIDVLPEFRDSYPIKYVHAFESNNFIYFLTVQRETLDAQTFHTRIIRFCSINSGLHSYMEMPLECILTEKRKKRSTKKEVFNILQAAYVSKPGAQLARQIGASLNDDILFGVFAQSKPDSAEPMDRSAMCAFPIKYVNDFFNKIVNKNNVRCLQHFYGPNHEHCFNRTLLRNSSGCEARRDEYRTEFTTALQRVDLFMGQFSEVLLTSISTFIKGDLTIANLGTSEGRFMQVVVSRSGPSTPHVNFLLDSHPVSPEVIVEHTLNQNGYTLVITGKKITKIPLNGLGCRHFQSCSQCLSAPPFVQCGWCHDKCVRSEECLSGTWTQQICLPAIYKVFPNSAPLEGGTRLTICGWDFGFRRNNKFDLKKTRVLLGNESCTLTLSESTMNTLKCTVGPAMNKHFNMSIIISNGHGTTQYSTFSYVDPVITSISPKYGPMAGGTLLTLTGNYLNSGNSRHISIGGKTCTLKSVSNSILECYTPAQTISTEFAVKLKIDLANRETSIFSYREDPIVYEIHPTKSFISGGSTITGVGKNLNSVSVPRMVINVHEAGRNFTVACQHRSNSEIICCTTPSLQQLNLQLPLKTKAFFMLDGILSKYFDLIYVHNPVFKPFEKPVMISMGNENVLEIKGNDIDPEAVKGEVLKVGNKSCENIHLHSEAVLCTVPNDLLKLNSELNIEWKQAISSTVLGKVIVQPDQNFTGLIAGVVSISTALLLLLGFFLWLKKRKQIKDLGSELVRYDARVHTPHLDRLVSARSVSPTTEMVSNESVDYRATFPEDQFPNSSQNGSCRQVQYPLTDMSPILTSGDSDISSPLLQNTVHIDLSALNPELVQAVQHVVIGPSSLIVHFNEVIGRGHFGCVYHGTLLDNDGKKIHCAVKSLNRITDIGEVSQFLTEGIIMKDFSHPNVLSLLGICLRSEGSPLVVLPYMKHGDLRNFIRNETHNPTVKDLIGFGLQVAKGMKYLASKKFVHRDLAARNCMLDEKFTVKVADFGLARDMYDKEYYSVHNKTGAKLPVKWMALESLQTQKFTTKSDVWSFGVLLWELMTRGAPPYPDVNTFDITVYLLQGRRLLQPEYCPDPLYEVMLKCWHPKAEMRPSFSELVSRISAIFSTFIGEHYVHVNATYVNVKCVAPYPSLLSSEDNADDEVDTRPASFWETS

B1: murine 11E1 Mab (antibody, from another filing, mouse IgG1, V domains shown)
VH: QVQLQQSGAELAKPGASVKMSCKASGYTFTSYWMNWVKQRPGQGLEWIGYINPTTGSTDYNQKLKDKATLTADKSSNTAYMQLSSLTSEDSAVYYCAIGGYGSWFAYWGQGTLVTVSA
VL: QIVLTQSPAIMSASPGEKVTLTCSASSSVSSTYLYWYQQKPGSSPKLWIYTTSILASGVPARFSGSGSGTSYSLTISSMETEDAASYFCHQWSSYPFTFGSGTKLDIK
  agonist effect on c-Met receptor phosphorylation, A549 cells (phospho-c-Met ELISA) (% of HGF effect): < 5
  inhibition of HGF [100 ng/ml]-induced c-Met receptor phosphorylation, A549 cells (% inhibition of HGF effect): > 70
  inhibition of HGF-induced proliferation of NCI-H441 cells ([3H]Thymidine): 80 % inhibition

B2: murine 227H1 Mab (antibody, from another filing, mouse IgG1, V domains shown)
VH: EVQLQQSGPELVKPGASMKISCKASGYSFTDYTLNWVKQSHGKTLEWIGLINPYNGGTTYNQKFKGKATLTVDKSSSTAYMELLSLTSEDSAVYYCAREEITKDFDFWGQGTTLTVSS
VL: GIVLTQSPASLAVSLGQRATISCRVSESIDTYGNSFIHWYQQKPGQPPKLLIYRASNLESGIPARFSGSGSRTDFTLTINPVEADDSATYYCQQSNEDPFTFGSGTKLEMK
  agonist effect on c-Met receptor phosphorylation, A549 cells (phospho-c-Met ELISA) (% of HGF effect): < 5
  inhibition of HGF [100 ng/ml]-induced c-Met receptor phosphorylation, A549 cells (% inhibition of HGF effect): > 70
  inhibition of HGF-induced proliferation of NCI-H441 cells ([3H]Thymidine): 80 % inhibition
